In PMC7809101, “Fetal bovine serum albumin inhibits antimicrobial peptide activity and binds drug only in complex with α1-antitrypsin” (Scientific Reports, 2021):

Assays:
Apo-AI = details: cited from earlier work
Excerpt: In addition to protein D, the serum protein apolipoprotein AI (Apo-AI) was also pulled down from crude fetal bovine serum by immobilized TP4-A12I,A15I, but in a less amount (Fig. 2a). The Apo-AI with Mr = 28,080 Da is the major constituent of high-density lipoprotein (HDL), which is involved in the removal of cholesterol from peripheral tissues and its catabolism. […] The amount of Apo-A1 in fetal bovine serum was much less than that of protein D (Fig. 8a, b). Int ...

fetal bovine serum (FBS) = assay: Band shift of AMPs by fetal bovine serum; type: binding; details: 10–40% FBS; AMP 4 μg; PC buffer, room temperature, 30 min; horizontal native 8% PAGE
Procedure: (§1) Various AMPs (4 μg each) were incubated with fetal bovine serum (FBS) components at room temperature in 10 μl PC buffer for 30 min and subjected to horizontal native 8% PAGE, pH8.0 or pH8.8, and Coomassie Blue staining.

[1] = biological target: T1, protein D (albumin and α1-antitrypsin complex) (Bos taurus, UniProt P02769+P34955); assay: Band shift of AMPs by protein D; type: binding, bovine; details: AMP 4 μg; protein 10 μg (Suppl. Fig. 3a); PC buffer, room temperature, 30 min; 8% horizontal native PAGE
T1 construct: The active components were further purified by fast performance liquid chromatography (FPLC) Mono Q and S12 column chromatography from the 70% saturated fraction; from tissue; host or cells: fetal bovine serum (70% ammonium sulfate fraction, FPLC Mono Q and Superose 12)

[2] = test system: Escherichia coli K-12 (MG1655); assay: Antimicrobial (bactericidal) activity against E. coli, effect of serum or serum proteins; type: cell-based; details: 5% (v/v) FBS in PBS, 37 °C; remaining viable cells (cfu)
Procedure: The Gram-negative bacteria Escherichia coli K-12 (MG1655) was cultured and plated in/on Luria–Bertani broth/agar plate (Merck Millipore, Darmstadt, Germany). The Gram-positive Staphylococcus aureus (ATCC 6538P) was cultured and plated in tryptic soy broth/agar (BD, MD, USA). The fungus Candida albicans (ATCC 14,053) was cultured and plated in YM broth/agar (BD, MD, USA). The bacteria were grown overnight, washed, and diluted 1:2000 in phosphate buffered saline (PBS), pH 7.5 or DMEM (Life Biotech, California, USA), pH 7.4. Bacteria (ca. 1 × 10^6 colony-forming units, cfu) were mixed with antimicrobial peptides (AMP) in 100 μl PBS and incubated at 37 °C (for bacteria) and at 30 °C (for fungus). Serial dilutions of each AMP-treated bacteria in PBS/DMEM supplemented with FBS were prepared and plated for the determination of remaining viable cells (expressed as cfu). At least three independent experiments were performed for each assay to determine the average value with standard deviation. MBC was defined as the lowest AMP concentration that kills 99.9% of the original inoculum.

[3] = biological target: T2, protein B (α1-antitrypsin) (Bos taurus, UniProt P34955); assay: Band shift of AMPs by protein B; type: binding, bovine; parameters: The homogeneities of collected protein A (albumin), protein B (α1-antitrypsin), protein C (serotransferrin) and protein D complex; from tissue; host or cells: fetal bovine serum (70% ammonium sulfate fraction, FPLC Mono Q); details: AMP 4 μg; protein 10 μg (Suppl. Fig. 3a); PC buffer, room temperature, 30 min; 8% horizontal native PAGE
T2 sequence (P34955 25-416): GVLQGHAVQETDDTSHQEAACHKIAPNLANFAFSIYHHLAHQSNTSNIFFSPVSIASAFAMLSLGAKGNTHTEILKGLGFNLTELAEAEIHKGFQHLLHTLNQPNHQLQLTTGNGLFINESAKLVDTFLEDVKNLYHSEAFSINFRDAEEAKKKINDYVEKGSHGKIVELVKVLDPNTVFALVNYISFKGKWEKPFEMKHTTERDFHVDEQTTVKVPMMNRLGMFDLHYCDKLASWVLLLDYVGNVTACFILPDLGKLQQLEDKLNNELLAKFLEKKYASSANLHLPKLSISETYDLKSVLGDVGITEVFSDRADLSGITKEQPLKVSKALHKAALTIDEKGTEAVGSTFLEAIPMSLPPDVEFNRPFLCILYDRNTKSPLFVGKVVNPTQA
Procedure: as §1

T1 sequence (P02769 25-607, one chain of several): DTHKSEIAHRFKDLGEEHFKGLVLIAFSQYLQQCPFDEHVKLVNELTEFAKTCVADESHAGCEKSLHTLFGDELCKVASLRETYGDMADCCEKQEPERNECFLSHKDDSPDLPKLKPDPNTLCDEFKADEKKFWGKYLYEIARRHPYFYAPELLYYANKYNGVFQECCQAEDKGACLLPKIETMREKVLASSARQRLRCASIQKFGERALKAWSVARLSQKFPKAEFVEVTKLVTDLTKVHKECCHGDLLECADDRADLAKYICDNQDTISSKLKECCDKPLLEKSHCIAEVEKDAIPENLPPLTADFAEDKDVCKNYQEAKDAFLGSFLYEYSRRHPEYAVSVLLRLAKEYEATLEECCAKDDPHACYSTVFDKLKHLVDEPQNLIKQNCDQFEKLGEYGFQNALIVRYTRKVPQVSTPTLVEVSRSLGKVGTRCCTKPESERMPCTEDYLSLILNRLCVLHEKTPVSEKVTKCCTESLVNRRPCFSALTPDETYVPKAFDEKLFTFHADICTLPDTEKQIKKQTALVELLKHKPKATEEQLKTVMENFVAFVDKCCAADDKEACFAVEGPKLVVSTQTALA

## LL37: human AMP LL37 [reference compound]
Apo-AI
  effect of Apo-AI on antimicrobial and cytotoxic activities: inhibits its antimicrobial and cytotoxic activities
Fetal bovine serum (FBS)
  mobility of AMP in band shift assay with FBS: retarded
[1]
  binding to protein D (band shift): also bound by protein D
[2]
  effect of FBS on antimicrobial activity against E. coli: serum-mediated repression
[3]
  binding to protein B (band shift): not by protein A and protein B
